Stoichiometry N data for one substance are collected here from article PMC9598537.

Broadly, the stoichiometry N is the number of molecules, sites or subunits per partner or assembly.

Assay [1] deals with AR9 chaperonin (gp228, product of gene 228 of bacteriophage AR9 Bacillus subtilis) (bacteriophage AR9 (Bacillus subtilis phage)). Nature of the assay: SAXS; gp228 at 0.5 to 7.0 mg/mL, 20 °C, P12 beamline PETRA III; oligomeric state from the excluded volume Vp.
Assay [2] shares this target. Briefly: cryo-EM structure; purified apo gp228 in 50 mM Tris-HCl pH 7.5, 10 mM MgCl2, 100 mM KCl; single particle analysis, maps with no symmetry and with C7 symmetry; homology model flexibly fitted into the map.

In the case of “AR9 chaperonin (gp228, product of gene 228 of bacteriophage AR9 Bacillus subtilis) (natural protein)”, the stoichiometry N in assay [1] and in assay [2] was 7 in each case.
